Assay results: US20230220068A1 (CODIAK BIOSCIENCES, published 2023)

Biological target: T1, PrX (human, UniProt Q9P2B2)
T1 construct: also called PTGFRN overexpressing exosomes
T1 sequence (scaffold on exosomes, looked up): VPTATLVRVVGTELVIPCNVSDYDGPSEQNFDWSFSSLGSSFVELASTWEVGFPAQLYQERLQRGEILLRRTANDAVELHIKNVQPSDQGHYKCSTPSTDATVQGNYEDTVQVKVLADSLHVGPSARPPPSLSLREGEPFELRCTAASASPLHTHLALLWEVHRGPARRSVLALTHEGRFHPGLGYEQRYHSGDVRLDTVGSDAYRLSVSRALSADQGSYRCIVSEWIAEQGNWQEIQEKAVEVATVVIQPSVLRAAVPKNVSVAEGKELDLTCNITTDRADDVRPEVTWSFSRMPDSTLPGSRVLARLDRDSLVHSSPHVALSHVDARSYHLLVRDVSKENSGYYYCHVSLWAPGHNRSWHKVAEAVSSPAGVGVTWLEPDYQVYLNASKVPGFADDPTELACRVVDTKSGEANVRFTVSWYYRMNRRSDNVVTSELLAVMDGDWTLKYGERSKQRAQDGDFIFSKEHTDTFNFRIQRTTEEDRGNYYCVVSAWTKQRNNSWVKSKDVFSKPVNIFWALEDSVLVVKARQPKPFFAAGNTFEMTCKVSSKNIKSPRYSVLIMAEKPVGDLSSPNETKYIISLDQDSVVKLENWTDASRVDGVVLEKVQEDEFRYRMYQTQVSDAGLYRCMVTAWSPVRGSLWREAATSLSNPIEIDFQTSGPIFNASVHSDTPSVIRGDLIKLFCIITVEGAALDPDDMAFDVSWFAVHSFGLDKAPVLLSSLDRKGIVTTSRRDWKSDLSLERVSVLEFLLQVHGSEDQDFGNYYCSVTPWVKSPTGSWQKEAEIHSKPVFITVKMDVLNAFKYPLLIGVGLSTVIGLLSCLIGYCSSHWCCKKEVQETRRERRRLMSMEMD
Test: Octet, exosomes on mouse SIRPα

- binding result: no binding
B1: mouse SIRPα (receptor, UniProt P97797 32-373, looked up)
chain: KELKVTQPEKSVSVAAGDSTVLNCTLTSLLPVGPIRWYRGVGPSRLLIYSFAGEYVPRIRNVSDTTKRNNMDFSIRISNVTPADAGIYYCVKFQKGSSEPDTEIQSGGGTEVYVLAKPSPPEVSGPADRGIPDQKVNFTCKSHGFSPRNITLKWFKDGQELHPLETTVNPSGKNVSYNISSTVRVVLNSMDVNSKVICEVAHITLDRSPLRGIANLSNFIRVSPTVKVTQQSPTSMNQVNLTCRAERFYPEDLQLIWLENGNVSRNDTPKNLTKNTDGTYNYTSLFLVNSSAHREDVVFTCQVKHDQQPAITRNHTVLGFAHSSDQGSMQTFPDNNATHNWN
